Molecular target: IE-3 fragment antigen-binding (Fab) region, recombinant, labelled
Assay: MST

B1: mouse ZP2 N-terminal ZP-N1 domain (mZP2-N1), His-tagged (domain or fragment)
chain: VSLPQSENPAFPGTLICDKDEVRIEFSSRFDMEKWNPSVVDTLGSEILNCTYALDLERFVLKFPYETCTIKVVGGYQVNIRVGDTTTDVRYKDDMYHFFCPAIQ
B1 showed a fold higher affinity than MBP-mZP2(T103-Q138) of 30 fold.
